Laboratory results published in PMC4686876, “Architecture of high-affinity unnatural-base DNA aptamers toward pharmaceutical applications”.

Molecular target: interferon-gamma (IFNγ) (human, UniProt P01579 24-161)
Assay: SPR; method inferred; no citation given with the value; SPR (BIAcore T200, biotinylated aptamer on SA chip), 1x PBS (1 mM KH2PO4, 3 mM Na2HPO4) with 205 mM NaCl final, 0.05% NP-40, pH 7.4, 25 °C; IFNγ 1.25-50 nM
Details: protein: recombinant; chain copies: 2

Sequence of interferon-gamma (IFNγ) (P01579 24-161): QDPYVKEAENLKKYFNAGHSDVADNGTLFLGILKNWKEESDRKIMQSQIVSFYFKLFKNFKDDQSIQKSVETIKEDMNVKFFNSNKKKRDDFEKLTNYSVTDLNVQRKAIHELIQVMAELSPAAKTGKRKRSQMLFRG

Binder: TCCACTCGGGTCATTTAATAATGTAGGTATGGGCTAGGCAGCTAGTGGA (structured_DNA) [aptamer 49A]
- Kd: 7.2 nM
